Experiment [1] has as its target p43, the major excreted/secreted protein of Trichuris muris (native p43) (Trichuris muris). Put plainly: native MS; p43 and IL-13 mixed at a ratio of 1.5:1 in 250 mM ammonium acetate, pH 7, 2 h at room temperature; nano-electrospray, collision-induced dissociation of the mass-selected 18+ ion of the complex.
Experiment [2] has the same target. Briefly: MST; serial dilution of IL-13 from 2500 nM to 40 pM with 5 nM NHS-647-labeled p43; 20 mM HEPES, 150 mM NaCl, 0.005% Tween-20, pH 7.4; KD model (1:1 stoichiometry); three reactions.

Usually stoichiometry N stands for a count of units in the complex or per binding partner. As a reminder, the Kd is the free concentration of one partner at which half of the binding sites on the other are occupied at equilibrium, for simple one-to-one binding. Lower therefore signals a tighter complex.

B1: recombinant murine interleukin-13 (ligand)
chain: APGPVPRSVSLPLTLKELIEELSNITQDQTPLCNGSMVWSVDLAAGGFCVALDSLTNISNCNAIYRTQRILHGLCNRKAPTTVSSLPDTKIEVAHFITKLLSYTKQLFRHGPF
As to B1, the stoichiometry N in experiment [1] is 1. Besides, in experiment [2], the Kd worked out at 420 nM.

For the origin of these results see paper PMC6538607.
